2 molecules from US11098109B2, “Single-chain variable fragment anti-CD133 antibodies and uses thereof” (REGENTS OF THE UNIVERSITY OF MINNESOTA, priority 2010, dated 2021) can be followed below.

For one experiment, the target named is T1, human prominin-1 (Homo sapiens, UniProt O43490, DEL381-611).
T1 construct: His-tag (6xHis) (N); made in house
T1 sequence (O43490 with tags, fused parts or gaps DEL381-611): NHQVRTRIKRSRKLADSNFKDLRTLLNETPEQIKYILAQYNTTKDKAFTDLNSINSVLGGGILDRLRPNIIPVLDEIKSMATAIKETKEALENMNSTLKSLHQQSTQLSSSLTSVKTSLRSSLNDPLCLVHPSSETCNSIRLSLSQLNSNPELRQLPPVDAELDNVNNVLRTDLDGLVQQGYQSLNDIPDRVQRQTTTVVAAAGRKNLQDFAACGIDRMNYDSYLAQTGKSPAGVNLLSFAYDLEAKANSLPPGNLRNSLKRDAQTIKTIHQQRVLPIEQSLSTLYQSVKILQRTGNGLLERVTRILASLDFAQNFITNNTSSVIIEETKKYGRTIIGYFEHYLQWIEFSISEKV
Description: Soluble scFv ELISA. In kind it is binding. The settings on record: for binding specificity in soluble scFv ELISA: scFv from culture medium and periplasmic space. The procedure: A single colony was picked from No. 11 DNA transformed Top10F′ E. coli LB-Amp plate in and used to inoculate 25 mL LB medium with 100 μg/mL Amp. The culture was shaken at 37° C. at 250 rpm overnight.
The 25 mL overnight culture was diluted to 500 mL LB containing Amp and was shaken at 37° C. at 250 rpm for about two hours until the OD600 reached 0.5 to 0.7. IPTG was added to a final concentration of 1 mM. The culture was shaken at 30° C. overnight.
The culture was centrifuged at 5.000 g for 20 minutes at 4° C. The supernatant was kept for ELISA.
The cell pellet was completely suspended with 50 mL ice-cold PBS containing protease inhibitors (1 mM PMSF), and was sonicated on ice in short bursts. The power setting was 7 min, 40% power cycle 5 (HD2200 W/MS 73). Triton X-100 was added to the cell lysate to a final concentration of 1% and was mixed gently for 30 minutes at room temperature to aid in solubilization of the fusion protein.
The mixture was centrifuged at 15,000 rpm (Heraeus #3334 rotor) for 30 minutes at 4° C., and the supernatant was taken for ELISA.
The 2 supernatants were diluted (one is from overnight culture supernatant, and the other is from overnight culture pellet) containing soluble mouse scFv with equal volume of 5% milk and were incubated for 10 minutes at room temperature.
100 μL of the diluted scFv was added to each well (coated with human prominin-1), and incubated for one hour at 37° C.
The plate was washed five times.
50 μL per well of diluted secondary antibody conjugate at 1:2.000 (HOURP-conjugated anti-HA, diluted in 5% milk) was added, and incubated for one hour at 37° C.
50 μL/well TMB substrate was added for detection, and incubated for 30 minutes at room temperature.
Soluble scFv ELISA was performed to confirm the binding specificity to the target protein. Here, the expressed scFv was captured by human prominin-1 pre-coated plate, and the binding of the soluble scFv fused with HA tag was detected with anti-HA Ab-HOURP conjugate. […] Supernatant and pellet are test samples. PC means positive control, hybridoma secreted antibody (diluted at 1:2000) was used. BLK means blank.
(ELISA stands for enzyme-linked immunosorbent assay.)

The next experiment concerns the target T2, CD133 (Homo sapiens, UniProt O43490).
T2 construct: endogenous in cells
T2 sequence (O43490 20-865): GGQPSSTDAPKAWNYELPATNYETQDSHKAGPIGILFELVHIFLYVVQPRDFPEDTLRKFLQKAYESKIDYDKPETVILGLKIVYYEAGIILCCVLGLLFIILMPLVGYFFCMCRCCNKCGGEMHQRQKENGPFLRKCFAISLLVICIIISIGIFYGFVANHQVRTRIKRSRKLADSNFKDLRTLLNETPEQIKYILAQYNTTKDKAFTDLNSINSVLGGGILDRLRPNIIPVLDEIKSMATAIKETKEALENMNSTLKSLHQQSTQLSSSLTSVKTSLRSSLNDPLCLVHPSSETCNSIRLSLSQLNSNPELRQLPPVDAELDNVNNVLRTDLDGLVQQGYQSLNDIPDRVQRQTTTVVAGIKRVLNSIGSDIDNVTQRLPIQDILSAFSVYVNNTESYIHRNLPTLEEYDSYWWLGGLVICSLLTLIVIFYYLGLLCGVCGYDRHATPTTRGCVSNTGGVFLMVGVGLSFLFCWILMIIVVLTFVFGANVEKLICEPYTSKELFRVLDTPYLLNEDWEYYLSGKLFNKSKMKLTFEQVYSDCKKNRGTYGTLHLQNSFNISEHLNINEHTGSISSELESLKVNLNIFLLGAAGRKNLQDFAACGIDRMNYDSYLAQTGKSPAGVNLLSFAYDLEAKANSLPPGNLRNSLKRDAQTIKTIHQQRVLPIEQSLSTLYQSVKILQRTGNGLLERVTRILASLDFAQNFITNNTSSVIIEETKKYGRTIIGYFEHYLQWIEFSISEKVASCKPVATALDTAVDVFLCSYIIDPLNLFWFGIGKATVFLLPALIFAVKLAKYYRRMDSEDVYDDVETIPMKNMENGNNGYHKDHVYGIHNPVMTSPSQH
Nature of the experiment: Flow cytometry of carcinoma lines with FITC-labeled anti-CD133 scFv. Type of experiment: binding. How it is done: We detected about 5% CD133 cells/95% CD133-cells in the various carcinomas that we examined. […] The anti-CD133 scFV was labeled with FITC and then standard flow cytometry was performed. The levels of CD133 expression (4-7.1%) are in agreement with values reported values. CaCo-2 colorectal carcinoma is a cell line known to express high levels of CD133+ cells so we included it as a positive control. Anti-CD45-FITC and anti-CD19 FITC are negative controls that preferentially recognize hematopoietic cells.
CD133 expression on UMSCC-11B cells on head and neck cancer cells. CD133 expression was measured on the UMSCC-11B cell line using flow cytometery. Cells were reacted with anti-CD133scFV-FITC for 30 minutes in the dark on ice. Cells were then washed 3× using saline and studied using a flow cytometer (FACScanto™ II, BD Biosciences, Franklin Lakes, N.J.). The blank (untreated cells) was used to establish the gate of non-positive cell activity. CD133 was expressed on both head and neck cancer cell lines, NA and UMSC-11B, at 5.9% and 6% respectively (Table 13). The Caco-2 colorectal carcinoma was included as a positive control cell line since it known to overexpress CD133. Controls included cells reacted with anti-EpCam-FITC, anti-CD45-FITC, and anti-CD19-FITC. Expression of CD45 and CD19 is mostly restricted to normal malignant hematopoietic cells.

B1: No. 11 scFv: soluble scFv of the Hybridoma Clone 7 antibody expressed in E. coli Top10F', SEQ ID NO:58; also used FITC-labeled (protein)
scFv: MDIVLSQSPAIMSASPGEKVTISCSASSSVSYMYWYQQKPGSSPKPWIYRTSNLASGVPARFSGSGSGTSYSLTISSMEAEDAATYYCQQYHSYPPTFGAGTKLELKSSGGGGSGGGGGGSSRSSLEVKLVESGPELKKPGETVKISCKASGYTFTDYSMHWVNQAPGKGLKWMGWINTETGEPSYADDFKGRFAFSLETSASTAYLQINNLKNEDTATYFCATDYGDYFDYWGQGTTLTVSS
modifications: optionally FITC-labeled; scFv polypeptide
For the molecule B1, in the experiment with human prominin-1 (culture supernatant of Top10F' E. coli), the “A450, Supernatant” value is 0.9. The “A450, Pellet” value with human prominin-1 (lysate of culture pellet (periplasmic space)) is 1.4. Besides, the entries for the “binding specificity in soluble scFv ELISA” value with human prominin-1 and with human prominin-1 (listed as Recombinant Clone 11 scFv) were “confirmed specific for human prominin-1 protein” and “specific for human CD133”, respectively. In addition, the “% Positive Cells, CD133+” value is 4.0% in the experiment with CD133 (BT474, breast); 62.8% in the experiment with CD133 (Caco-2, colon, positive control line, listed as anti-CD133 scFV); 80.0% in the experiment with CD133 (Caco-2, colon, positive control line, listed as anti-CD133scFV-FITC); 4.0% with CD133 (MDA-MB231, breast); 5.2% with CD133 (MDA-MD468, breast); 7.1% in the experiment with CD133 (MiaPaCa-2, pancreas). In addition, the “% Positive Cells, CD133+” value with CD133 (NA, head & neck) is on record as 5.9%; with CD133 (SKBR3, breast), 4.2%; with CD133 (UMSCC-11B, head & neck, listed as anti-CD133 scFV), 6.0%; with CD133 (UMSCC-11B, head & neck, listed as anti-CD133scFV-FITC), 6%. Besides, the “levels of CD133 expression” value with CD133 (various carcinoma lines of Table 1) is 4-7.1%.

B2: Hybridoma Clone 7: monoclonal antibody produced by Hybridoma Clone 7 that specifically binds to human CD133 (antibody, V domains shown)
VL: DIVLSQSPAIMSASPGEKVTISCSASSSVSYMYWYQQKPGSSPKPWIYRTSNLASGVPARFSGSGSGTSYSLTISSMEAEDAATYYCQQYHSYPPTFGAGTKLELK
VH: LEVKLVESGPELKKPGETVKISCKASGYTFTDYSMHWVNQAPGKGLKWMGWINTETGEPSYADDFKGRFAFSLETSASTAYLQINNLKNEDTATYFCATDYGDYFDYWGQGTTLTVSS
Consider B2, for which the “A450, Positive Control” value with human prominin-1 (hybridoma secreted antibody diluted at 1:2000) turned out to be 1.9.
